According to the supplement of paper PMC11246515:
± gives the standard deviation of the averaged measurements.

Assay: total protein half-life in vivo (active degradation + dilution); higher = more stable protein
[1] = E. coli NCM3722 delta-clpP delta-lon delta-hslV, growth: N-lim chemostat, doubling time 6 h
[2] = E. coli NCM3722 delta-clpP, growth: N-lim chemostat, doubling time 6 h
[3] = E. coli NCM3722 delta-hslV, growth: N-lim chemostat, doubling time 6 h
[4] = E. coli NCM3722 delta-lon, growth: N-lim chemostat, doubling time 6 h
[5] = E. coli NCM3722 delta-smpB, growth: N-lim chemostat, doubling time 6 h
[6] = wild type E. coli NCM3722, growth: C-lim chemostat, doubling time 3 h
[7] = wild type E. coli NCM3722, growth: C-lim chemostat, doubling time 6 h
[8] = wild type E. coli NCM3722, growth: C-lim chemostat, doubling time 12 h
[9] = wild type E. coli NCM3722, growth: N-lim chemostat, doubling time 6 h
[10] = wild type E. coli NCM3722, growth: N-lim chemostat, doubling time 12 h
[11] = wild type E. coli NCM3722, growth: P-lim chemostat, doubling time 6 h
[12] = wild type E. coli NCM3722, growth: P-lim chemostat, doubling time 12 h

Sequence | total protein half-life in vivo [1] [h] | total protein half-life in vivo [2] [h] | total protein half-life in vivo [3] [h] | total protein half-life in vivo [4] [h] | total protein half-life in vivo [5] [h] | total protein half-life in vivo [6] [h] | total protein half-life in vivo [7] [h] | total protein half-life in vivo [8] [h] | total protein half-life in vivo [9] [h] | total protein half-life in vivo [10] [h] | total protein half-life in vivo [11] [h] | total protein half-life in vivo [12] [h]
MNYQNDDLRIKEIKELLPPVALLEKFPATENAANTVAHARKAIHKILKGNDDRLLVVIGPCSIHDPVAAKEYATRLLALREELKDELEIVMRVYFEKPRTTVGWKGLINDPHMDNSFQINDGLRIARKLLLDINDSGLPAAGEFLDMITPQYLADLMSWGAIGARTTESQVHRELASGLSCPVGFKNGTDGTIKVAIDAINAAGAPHCFLSVTKWGHSAIVNTSGNGDCHIILRGGKEPNYSAKHVAEVKEGLNKAGLPAQVMIDFSHANSSKQFKKQMDVCADVCQQIAGGEKAIIGVMVESHLVEGNQSLESGEPLAYGKSITDACIGWEDTDALLRQLANAVKARRG [P0AB91] | 3.65 ± 0.43 | 2.92 ± 0.049 | 2.76 ± 0.068 | 3.62 ± 0.64 | 3.01 ± 0.16 | 3.18 ± 0.28 | 5.81 ± 0.16 | 10.3 ± 0.25 | 3.02 ± 0.048 | 3.98 ± 0.2 | 5.41 ± 0.039 | 10.3 ± 0.3
MPACELRPATQYDTDAVYALICELKQAEFDHHAFRVGFNANLRDPNMRYHLALLDGEVVGMIGLHLQFHLHHVNWIGEIQELVVMPQARGLNVGSKLLAWAEEEARQAGAEMTELSTNVKRHDAHRFYLREGYEQSHFRFTKAL | 4.67 ± 0.61 | 2.53 ± 0.34 | 1.8 ± 0.17 | 2.76 ± 0.12 | 1.58 ± 0.037 | 1.61 ± 0.22 | 2.49 ± 0.34 | 2.45 | 1.93 ± 0.3 | 2.54 ± 0.055 | 3.65 ± 0.24 | 6.57 ± 0.13
MPAPVVLILAAGRGECFLASGGNTHKCIGWRQSPEVAPYRWPFEENGRTFDLAIEPQITTNDLRLMLRLALAGGGITIATQETFRPYIESGKLVSLLDDFLPQFPGFYLYFPQRRNIAPKLRALIDYVKEWRQQLA | 4.63 |  |  |  |  |  |  |  |  |  |  | 
MPDQTQQFSFKVLTINIHKGFTAFNRRFILPELRDAVRTVSADIVCLQEVMGAHEVHPLHVENWPDTSHYEFLADTMWSDFAYGRNAVYPEGHHGNAVLSRYPIEHYENRDVSVDGAEKRGVLYCRIVPPMTGKAIHVMCVHLGLREAHRQAQLAMLAEWVNELPDGEPVLVAGDFNDWRQKANHPLKVQAGLDEIFTRAHGRPARTFPVQFPLLRLDRIYVKNASASAPTALPLRTWRHLSDHAPLSAEIHL [P0AAW1] | 6.17 ± 0.23 | 6.2 ± 0.43 |  | 5.85 ± 0.22 | 5.57 ± 0.47 | 2.68 ± 0.41 | 4.96 ± 0.51 | 10.9 ± 3 | 5.11 ± 0.57 | 13.9 ± 0.67 | 5.16 ± 0.24 | 11.5 ± 0.52
MPDSRKARRIADPGLQPERTSLAWFRTMLGYGALMALAIKHNWHQAGMLFWISIGILAIVALILWHYTRNRNLMDVTNSDFSQFHVVRDKFLISLAVLSLAILFAVTHIHQLIVFIERVA [P0ADL6] |  |  |  |  |  |  |  |  |  | 8.68 |  | 
MPELPEVETSRRGIEPHLVGATILHAVVRNGRLRWPVSEEIYRLSDQPVLSVQRRAKYLLLELPEGWIIIHLGMSGSLRILPEELPPEKHDHVDLVMSNGKVLRYTDPRRFGAWLWTKELEGHNVLTHLGPEPLSDDFNGEYLHQKCAKKKTAIKPWLMDNKLVVGVGNIYASESLFAAGIHPDRLASSLSLAECELLARVIKAVLLRSIEQGGTTLKDFLQSDGKPGYFAQELQVYGRKGEPCRVCGTPIVATKHAQRATFYCRQCQK | 6.1 ± 0.54 | 6.39 ± 0.79 | 6.03 | 6.39 ± 1.2 | 5.63 ± 0.36 | 2.58 ± 0.11 |  | 12.7 ± 2.8 | 6.31 ± 0.42 | 12.8 ± 1.4 | 6.46 ± 0.51 | 14.2 ± 0.28
MPENYTPAAAATGTWTEEEIRHQPRAWIRSLTNIDALRSALNNFLEPLLRKENLRIILTGAGTSAFIGDIIAPWLASHTGKNFSAVPTTDLVTNPMDYLNPAHPLLLISFGRSGNSPESVAAVELANQFVPECYHLPITCNEAGALYQNAINSDNAFALLMPAETHDRGFAMTSSITTMMASCLAVFAPETINSQTFRDVADRCQAILTSLGDFSEGVFGYAPWKRIVYLGSGGLQGAARESALKVLELTAGKLAAFYDSPTGFRHGPKSLVDDETLVVVFVSSHPYTRQYDLDLLAELRRDNQAMRVIAIAAESSDIVAAGPHIILPPSRHFIDVEQAFCFLMYAQTFALMQSLHMGNTPDTPSASGTVNRVVQGVIIHPWQA |  |  |  |  |  | 3.44 ± 0.35 | 3.18 | 5.91 |  |  |  | 
MPEPVAEPALNGLRLNLRIVSIVMFNFASYLTIGLPLAVLPGYVHDVMGFSAFWAGLVISLQYFATLLSRPHAGRYADSLGPKKIVVFGLCGCFLSGLGYLTAGLTASLPVISLLLLCLGRVILGIGQSFAGTGSTLWGVGVVGSLHIGRVISWNGIVTYGAMAMGAPLGVVFYHWGGLQALALIIMGVALVAILLAIPRPTVKASKGKPLPFRAVLGRVWLYGMALALASAGFGVIATFITLFYDAKGWDGAAFALTLFSCAFVGTRLLFPNGINRIGGLNVAMICFSVEIIGLLLVGVATMPWMAKIGVLLAGAGFSLVFPALGVVAVKAVPQQNQGAALATYTVFMDLSLGVTGPLAGLVMSWAGVPVIYLAAAGLVAIALLLTWRLKKRPPEHVPEAASSS |  | 3.62 |  |  |  |  |  |  |  |  |  | 
MPEQYRYTLPVKAGEQRLLGELTGAACATLVAEIAERHAGPVVLIAPDMQNALRLHDEISQFTDQMVMNLADWETLPYDSFSPHQDIISSRLSTLYQLPTMQRGVLIVPVNTLMQRVCPHSFLHGHALVMKKGQRLSRDALRTQLDSAGYRHVDQVMEHGEYATRGALLDLFPMGSELPYRLDFFDDEIDSLRVFDVDSQRTLEEVEAINLLPAHEFPTDKAAIELFRSQWRDTFEVKRDPEHIYQQVSKGTLPAGIEYWQPLFFSEPLPPLFSYFPANTLLVNTGDLETSAERFQADTLARFENRGVDPMRPLLPPQSLWLRVDELFSELKNWPRVQLKTEHLPTKAANANLGFQKLPDLAVQAQQKAPLDALRKFLETFDGPVVFSVESEGRREALGELLARIKIAPQRIMRLDEASDRGRYLMIGAAEHGFVDTVRNLALICESDLLGERVARRRQDSRRTINPDTLIRNLAELHIGQPVVHLEHGVGRYAGMTTLEAGGITGEYLMLTYANDAKLYVPVSSLHLISRYAGGAEENAPLHKLGGDAWSRARQKAAEKVRDVAAELLDIYAQRAAKEGFAFKHDREQYQLFCDSFPFETTPDQAQAINAVLSDMCQPLAMDRLVCGDVGFGKTEVAMRAAFLAVDNHKQVAVLVPTTLLAQQHYDNFRDRFANWPVRIEMISRFRSAKEQTQILAEVAEGKIDILIGTHKLLQSDVKFKDLGLLIVDEEHRFGVRHKERIKAMRANVDILTLTATPIPRTLNMAMSGMRDLSIIATPPARRLAVKTFVREYDSMVVREAILREILRGGQVYYLYNDVENIQKAAERLAELVPEARIAIGHGQMRERELERVMNDFHHQRFNVLVCTTIIETGIDIPTANTIIIERADHFGLAQLHQLRGRVGRSHHQAYAWLLTPHPKAMTTDAQKRLEAIASLEDLGAGFALATHDLEIRGAGELLGEEQSGSMETIGFSLYMELLENAVDALKAGREPSLEDLTSQQTEVELRMPSLLPDDFIPDVNTRLSFYKRIASAKTENELEEIKVELIDRFGLLPDPARTLLDIARLRQQAQKLGIRKLEGNEKGGVIEFAEKNHVNPAWLIGLLQKQPQHYRLDGPTRLKFIQDLSERKTRIEWVRQFMRELEENAIA | 5.59 ± 0.3 | 5.07 ± 0.12 | 5.1 ± 0.13 | 5.12 ± 0.13 | 5.021 ± 0.009 | 3.07 ± 0.11 | 6.0491 ± 0.00051 | 11.4 ± 0.52 | 4.9912 ± 0.001 | 8.76 ± 0.27 | 5.92 ± 0.57 | 11.3 ± 0.21
MPEVQTDHPETAELSKPQLRMVDLNLLTVFDAVMQEQNITRAAHVLGMSQPAVSNAVARLKVMFNDELFVRYGRGIQPTARAFQLFGSVRQALQLVQNELPGSGFEPASSERVFHLCVCSPLDSILTSQIYNHIEQIAPNIHVMFKSSLNQNTEHQLRYQETEFVISYEDFHRPEFTSVPLFKDEMVLVASKNHPTIKGPLLKHDVYNEQHAAVSLDRFASFSQPWYDTVDKQASIAYQGMAMMSVLSVVSQTHLVAIAPRWLAEEFAESLELQVLPLPLKQNSRTCYLSWHEAAGRDKGHQWMEEQLVSICKR | 5.69 ± 0.67 | 1.07 |  |  |  |  |  |  |  |  |  | 
